Measured values: patent US20100272750A1

B1: HPV45.E1.228 HTL epitope (peptide)
peptide: DWVMAIFGVNPTVAEGF
modifications: not checked
B2: HPV16.E6.130 HTL epitope (peptide)
peptide: QRFHNIRGRWTGRCM
modifications: not checked
B3: HPV31.E2.033 HTL epitope (peptide)
peptide: WKHIRLECVLMYKAR
modifications: not checked
B4: HPV45.E6.127 HTL epitope (peptide)
peptide: FHSIAGQYRGQCNTC
modifications: not checked
B5: HPV16.E2.033 HTL epitope (peptide)
peptide: WKHMRLECAIYYKAR
modifications: not checked
B6: HPV16.E7.13 HTL epitope (peptide)
peptide: LDLQPETTDLYCYEQ
modifications: not checked
B7: HPV16.E2.070 HTL epitope (peptide)
peptide: LQAIELQLTLETIYN
modifications: not checked

Target: HLA DRB1*0101 (human)
Experiment: competition with 125I probe peptide, purified HLA

Going from B1 to B2, the IC50 falls from 487 nM to 36 nM (14-fold).

Going from B3 to B4, the IC50 falls from 1440 nM to 107 nM (13-fold). The second is the more potent here.

Work on B5 yielded an IC50 of 701 nM.

Target: HLA DRB1*0301 (human)
Experiment: competition with 125I probe peptide, purified HLA

First: B1
Second: B3
The IC50 of the first is 26-fold higher: 3750 nM for the first, 146 nM for the second.

B6 and B5 are within 1.5-fold of each other in IC50: 590 nM for the first, 437 nM for the second.

Target: HLA DRB1*0401 (human)
Experiment: competition with 125I probe peptide, purified HLA

First: B1
Second: B2
The IC50 of the first is 32-fold lower: 91 nM for the first, 2900 nM for the second. The first is the more potent here.

Going from B3 to B6, the IC50 rises from 263 nM to 1900 nM (7.2-fold). The first is the more potent here.

Compared with B4, B5 is 28-fold higher in IC50: 8.6 nM for the first, 245 nM for the second.

Target: HLA DRB1*0404 (human)
Experiment: competition with 125I probe peptide, purified HLA

Going from B1 to B2, the IC50 rises from 20 nM to 4110 nM (210-fold). The first is the more potent here.

Compared with B3, B4 is 11-fold higher in IC50: 307 nM for the first, 3300 nM for the second. The first is the more potent here.

In the case of B5, the IC50 is reported as 6860 nM.

Target: HLA DRB1*0405 (human)
Experiment: competition with 125I probe peptide, purified HLA

First: B1
Second: B2
The IC50 of the first is 49-fold lower: 92 nM for the first, 4470 nM for the second. The first is the more potent here.

First: B3
Second: B4
The IC50 of the first is 5-fold lower: 71 nM for the first, 358 nM for the second.

B5 gave an IC50 of 557 nM.

Target: HLA DRB1*0701 (human)
Experiment: competition with 125I probe peptide, purified HLA

First: B1
Second: B2
The IC50 of the first is 5.3-fold lower: 52 nM for the first, 277 nM for the second.

First: B3
Second: B4
The IC50 of the first is 6.8-fold higher: 16400 nM for the first, 2400 nM for the second. The second is the more potent here.

With B5 the IC50 was 504 nM.

Target: HLA DRB1*0802 (human)
Experiment: competition with 125I probe peptide, purified HLA

First: B1
Second: B2
The IC50 of the first is 4.8-fold higher: 4260 nM for the first, 894 nM for the second. The second is the more potent here.

First: B3
Second: B4
The IC50 of the first is 16-fold lower: 476 nM for the first, 7640 nM for the second. The first is the more potent here.

B5 was tested, and the IC50 was 90 nM.

Target: HLA DRB1*0901 (human)
Experiment: competition with 125I probe peptide, purified HLA

First: B1
Second: B3
The IC50 of the first is 1.5-fold higher: 17900 nM for the first, 11800 nM for the second.

Compared with B4, B5 is 3.2-fold higher in IC50: 1990 nM for the first, 6340 nM for the second.

Target: HLA DRB1*1101 (human)
Experiment: competition with 125I probe peptide, purified HLA

Going from B1 to B2, the IC50 falls from 4960 nM to 574 nM (8.6-fold). The second is the more potent here.

First: B3
Second: B4
The IC50 of the first is 5.1-fold lower: 81 nM for the first, 416 nM for the second.

With B5 the IC50 was 2400 nM.

Target: HLA DRB1*1201 (human)
Experiment: competition with 125I probe peptide, purified HLA

B2 and B4 are within 1.5-fold of each other in IC50: 14600 nM for the first, 10100 nM for the second.

Target: HLA DRB1*1302 (human)
Experiment: competition with 125I probe peptide, purified HLA

Compared with B1, B2 is 78-fold higher in IC50: 68 nM for the first, 5310 nM for the second.

First: B3
Second: B5
The IC50 of the first is 4.6-fold lower: 54 nM for the first, 248 nM for the second. The first is the more potent here.

Target: HLA DRB1*1501 (human)
Experiment: competition with 125I probe peptide, purified HLA

Compared with B1, B2 is 160-fold higher in IC50: 108 nM for the first, 17200 nM for the second. The first is the more potent here.

Going from B3 to B4, the IC50 rises from 134 nM to 574 nM (4.3-fold).

Work on B5 yielded an IC50 of 1390 nM.

Target: HLA DRB4*0101 (human)
Experiment: competition with 125I probe peptide, purified HLA

Compared with B1, B2 is 8-fold higher in IC50: 571 nM for the first, 4550 nM for the second. The first is the more potent here.

Compared with B3, B6 is 6-fold lower in IC50: 102 nM for the first, 17 nM for the second.

Compared with B4, B5 is 1.7-fold lower in IC50: 1300 nM for the first, 766 nM for the second. The second is the more potent here.

Target: HLA DRB5*0101 (human)
Experiment: competition with 125I probe peptide, purified HLA

Going from B1 to B2, the IC50 rises from 387 nM to 919 nM (2.4-fold).

First: B3
Second: B4
The IC50 of the first is 9.6-fold higher: 412 nM for the first, 43 nM for the second.

B5 was tested, and the IC50 was 280 nM.

Target: HLA DRB1*0101 (human)
Experiment: competition with 125I probe peptide, purified HLA; crude peptide batch

B7 was tested, and the IC50 was 42 nM.

Target: HLA DRB1*0401 (human)
Experiment: as above

Binder B7 has an IC50 of 37 nM.

Target: HLA DRB1*0404 (human)
Experiment: as above

B7 gave an IC50 of 282 nM.

Target: HLA DRB1*0405 (human)
Experiment: as above

B7 showed an IC50 of 384 nM.

Target: HLA DRB1*0701 (human)
Experiment: as above

Work on B7 yielded an IC50 of 3280 nM.

Target: HLA DRB1*0802 (human)
Experiment: as above

Work on B7 yielded an IC50 of 7610 nM.

Target: HLA DRB1*0901 (human)
Experiment: as above

For B7, the IC50 was 1430 nM.

Target: HLA DRB1*1101 (human)
Experiment: as above

B7 was tested, and the IC50 was 4380 nM.

Target: HLA DRB1*1201 (human)
Experiment: as above

B7 gave an IC50 of 268 nM.

Target: HLA DRB1*1501 (human)
Experiment: as above

B7 showed an IC50 of 688 nM.

Target: HLA DRB4*0101 (human)
Experiment: as above

In the case of B7, the IC50 is reported as 2 nM.
